Consider three molecules from patent US20120308574A1 (HANWHA CHEMICAL, published 2012).

Assay [1] deals with T1, mVCAM-1-Fc chimera (R&D systems, Cat# 643-VM) (mouse, UniProt P29533 25-698).
T1 construct: Bought product; also called Mouse VCAM-1 antigen; mouse antigen; Fc part of the bought chimera not given
T1 sequence (looked up): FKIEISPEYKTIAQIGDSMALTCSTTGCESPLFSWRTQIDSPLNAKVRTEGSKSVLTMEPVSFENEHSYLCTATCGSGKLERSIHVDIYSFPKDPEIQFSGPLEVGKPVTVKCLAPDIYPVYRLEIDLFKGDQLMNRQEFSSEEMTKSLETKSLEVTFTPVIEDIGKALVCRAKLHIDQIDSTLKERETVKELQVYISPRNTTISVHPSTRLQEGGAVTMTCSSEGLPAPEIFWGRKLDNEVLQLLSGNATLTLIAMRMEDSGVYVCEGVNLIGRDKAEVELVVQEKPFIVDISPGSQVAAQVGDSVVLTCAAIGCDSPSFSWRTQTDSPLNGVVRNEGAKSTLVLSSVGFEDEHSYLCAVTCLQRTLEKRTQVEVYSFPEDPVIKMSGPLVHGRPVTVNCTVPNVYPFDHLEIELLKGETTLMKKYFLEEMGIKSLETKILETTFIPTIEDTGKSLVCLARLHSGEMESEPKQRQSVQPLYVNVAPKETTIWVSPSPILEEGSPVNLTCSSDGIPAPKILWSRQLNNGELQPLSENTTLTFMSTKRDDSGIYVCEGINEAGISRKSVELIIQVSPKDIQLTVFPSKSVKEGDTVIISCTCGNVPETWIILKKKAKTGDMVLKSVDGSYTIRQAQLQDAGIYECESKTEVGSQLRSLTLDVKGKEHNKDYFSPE
Kind of assay: SPR (BIACORE), VCAM-1/Fc immobilised on CM5 chip, antibody as analyte, 1:1 binding model. As for the experimental part: (§1) 1 mg/Ml of ligand to be immobilized was diluted in 97 μl of each sodium acetate solution (varying within the pH range from 4.0 to 5.5) at a dilution ratio of 3/100, and then applied at a flow rate of 10 μl/min for about 3 min (as a negative control, the ligand was diluted using a running buffer, HBS-EP buffer (BIACORE AB, Sweden) in the same manner). In order to immobilize the ligand at a predetermined value target RU (resonance unit), serial injection was carried out automatically, until reaching target RU. The ligand-immobilized chip was inactivated by injection of 1M ethanolamine (Amine Coupling Kit, BR-1000-50) at a flow rate of 10 μl/min for about 3 min. The final RU was determined by an immobilization report which provides a difference in RU values before and after injection of ethanolamine.
(§2) A flow cell2-flow cell mode provided by BIACORE instrument was employed in this experiment in order to remove non-specific binding. At this time, a recombinant VCAM1/Fc antigen was immobilized as a ligand to the flow cell2, and BSA (Bovine Serum Albumin) was immobilized to the flow cell. Then, each of the anti VCAM-1 antibodies 4B, 7C and 7H as the analyte were applied to flow cell 1 and 2, simultaneously. The sensogram RU of flow cell was automatically subtracted from the sensogram RU of flow cell2. Subsequently, the analytes were applied at a flow rate of 30 μl/min for about 3 min, and then dissociation was induced for 120 sec. Through this procedure, an association/dissociation curve of the corresponding antigen and antibody was obtained, and an association/dissociation constant KD was calculated by BIAevaluation program (BIACORE AB, Sweden), as shown in the following Table 2.
(§3) The above Table 2 represents the binding capacity or affinity of human and mouse VCAM-1 antigen-specific anti VCAM-1 human monoclonal antibodies to antigen, and a protein affinity analyzer, BIACORE (BIACORE AB, Sweden) was used to analyze a species specific antigen-antibody affinity to the biologically different species, human and mouse antigens. The affinity constant KD value of corresponding antigen-antibody was calculated in a 1:1 binding mode.
A general note: Surface plasmon resonance follows binding to a sensor surface in real time, without labels.

The target of assay [2] is T2, recombinant human VCAM-1 domain 1~7/Fc chimera (R&D, 862-VC) (human, UniProt P19320 25-698).
T2 construct: domain: domain 1~7; Bought product; also called VD7; hVCAM-Fc-chimera; Fc part of the bought chimera not given
T2 sequence (looked up): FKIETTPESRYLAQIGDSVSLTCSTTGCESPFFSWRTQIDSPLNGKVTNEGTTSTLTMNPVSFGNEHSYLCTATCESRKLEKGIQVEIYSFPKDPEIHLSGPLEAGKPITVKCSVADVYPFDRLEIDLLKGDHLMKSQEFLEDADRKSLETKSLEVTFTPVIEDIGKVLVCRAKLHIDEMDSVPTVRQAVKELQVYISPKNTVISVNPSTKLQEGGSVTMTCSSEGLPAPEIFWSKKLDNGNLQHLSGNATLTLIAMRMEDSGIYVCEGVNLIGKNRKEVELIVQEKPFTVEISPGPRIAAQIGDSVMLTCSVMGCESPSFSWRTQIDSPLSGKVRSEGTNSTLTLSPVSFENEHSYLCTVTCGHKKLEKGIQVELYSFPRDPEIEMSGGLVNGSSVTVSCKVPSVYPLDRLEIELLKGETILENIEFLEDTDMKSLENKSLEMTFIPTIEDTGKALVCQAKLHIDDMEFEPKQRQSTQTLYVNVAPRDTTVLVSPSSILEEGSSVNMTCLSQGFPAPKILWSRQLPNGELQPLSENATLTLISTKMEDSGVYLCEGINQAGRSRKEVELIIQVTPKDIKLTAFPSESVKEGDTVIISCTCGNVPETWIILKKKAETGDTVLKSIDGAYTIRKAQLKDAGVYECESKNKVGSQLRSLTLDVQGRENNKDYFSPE
Described as above. As for the experimental part: as §1, §2, §3

Assay [3] has as its target T3, recombinant human VCAM-1 (Cat. No. 809-VR-200, R&D systems) (human, UniProt P19320 25-698, limits assumed).
T3 sequence (looked up): T2 sequence (looked up)
Kind of assay: cell-based or functional assay.

The target in assay [4] is T2, recombinant human VCAM-1 domain 1~7/Fc …. Kind of assay: SPR (BIACORE), VCAM-1/Fc immobilised, antibody as analyte. As for the experimental part:
as §1, with “For ligand immobilization to the sensor chip CM5, the chip should be first activated with a mixture of N-hydroxysuccinimide (NHS) and […] (EDC) (Amine Coupling Kit, BR-1000-50) to prepare a NHS-ester-activated chip surface being highly reactive to an amino group. 1 mg/Ml” for “1 mg/Ml”, “target RU. […] The final” for “target RU. The ligand-immobilized chip was inactivated by injection of 1M ethanolamine (Amine Coupling Kit, BR-1000-50) at a flow rate of 10 μl/min for about 3 min. The final”
(§4) A flow cell2-flow cell mode provided by BIACORE instrument was employed in this experiment in order to remove non-specific binding. […] Through this procedure, an association/dissociation curve of the corresponding antigen and antibody was obtained, and an association/dissociation constant KD was calculated by BIAevaluation program (BIACORE AB, Sweden), as shown in the following Table 2.

Assay [5] has as its target T1, mVCAM-1-Fc chimera (R&D systems, Cat# …). Kind of assay: SPR (BIACORE), VCAM-1/Fc immobilised on CM5 chip, antibody as analyte. The protocol: as §1, with “For ligand immobilization to the sensor chip CM5, the chip should be first activated with a mixture of N-hydroxysuccinimide (NHS) and […] (EDC) (Amine Coupling Kit, BR-1000-50) to prepare a NHS-ester-activated chip surface being highly reactive to an amino group. 1 mg/Ml” for “1 mg/Ml”, “target RU. […] The final” for “target RU. The ligand-immobilized chip was inactivated by injection of 1M ethanolamine (Amine Coupling Kit, BR-1000-50) at a flow rate of 10 μl/min for about 3 min. The final”
as §4

B1: anti VCAM-1 human monoclonal antibody 7C (antibody, V domains shown)
VH: QVQLVESGGGVVQPGGSLRLSCAASGFTFDDYAMHWVRQAPGKGLEWVSLISGDGTDTYYADSVKGRFTISRDNSKNSLYLQMNSLRAEDTAVYYCAKRGYSYLGALDGWGQGTKITVSS
VL: QLVLTQSPSVSVAPGQTARITCGGDNIGRESVHWYQQKAGQAPVLVIYYDSDRPSGIPERFSGSNSGNTATLTISWVDAGDEADYYCQVWDSSSDHVVFGGGTKLTVL
Usually Kd stands for the concentration at which binding is half-saturated. As to B1, the Kd in assay [1] was determined as 36.9 nM; in assay [2], 38.8 nM. Moreover, the “inhibition of adhesion of fluorescence-labelled U937 leukocytes to coated human VCAM-1 (reduction in fluorescence intensity)” value in assay [3] worked out at 90%.

B2: anti VCAM-1 human monoclonal antibody 7H (antibody, V domains shown)
VH: QMQLVQSGGDLVKPGESLRLSCAASGFTFNDAWMTWVRQPPGKGLEWVGRIKSTTDGGTTNYAAPVEGRFTISRDDSKNTLYLEMNSLRAEDTAVYYCARIPLFNHDSGGYHGAFDIWGQGTMVTVSS
VL: DIQMTQSPSSLAVSLGERATINCKSSQSVLYSSNNKNYLAWYQQKPGQPPKLLIYWASTRESGVPDRFSGSGSGTDFTLTISSLQPEDFASYYCQESYSAPYTFGQGTKVEIKR
Regarding B2, the Kd in assay [1] amounted to 10.7 nM; in assay [2] it was 5.44 nM. Moreover, in assay [3], the “inhibition of adhesion of fluorescence-labelled U937 leukocytes to coated human VCAM-1 (reduction in fluorescence intensity)” value was determined as 90%.

B3: anti VCAM-1 human monoclonal antibody 4B (antibody, V domains shown)
VH: QMQLVESGGGLVQPGGSLRLSCAASGFTFSSYGVSWVRQAPGKGLEWVSRISGSGGSTYYADSVKGRFTISRDNSKSTLYLQMNSLRAEDTAVYYCARPIFYGGNSAFDSWGQGTLVTVSS
VL: QLVLTQPPSVSAAPGQKVTISCSGSSSNIGNNFVSWYQHLPGTAPKLLIYDNNKRPSGIPDRFSGSKSGTSATLGIAGLQTGDDADYYCGTWDSSLSAYVFGTGAKVTVL
notes: Tested as full IgG converted from an scFv phage clone and expressed in CHO-S (about 55 kDa heavy chain, about 25 kDa light chain)
For B3, the Kd in assay [4] was approximately 1 nM; in assay [2] it was 0.5 nM. The binding result in assay [5] was “no binding”. Besides, the “inhibition of adhesion of fluorescence-labelled U937 leukocytes to coated human VCAM-1 (reduction in fluorescence intensity)” value in assay [3] stood at 80%.
